In the nanobody polyreactivity screen of Harvey et al. (2022):

Assay: yeast display, Sf9 membrane polyspecificity reagent, FACS + sequencing; frameworks hold sequencing errors
Procedure, shortened: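 Polyreactivity labels are assigned by the sorting gate from which each nanobody was recovered. The gates were low and high (top ~1%), set on anti-HA fluorescence for expression and streptavidin fluorescence for reagent binding. Before sorting, galactose-induced (36–48 hours) yeast display cells were stained for 1 hour at 4 °C with 10% biotinylated, detergent-solubilized Sf9 membrane reagent.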

Row | Sequence | polyreactivity (PSR sort gate)
1 | QVQLVESGGGLVQAGGSLRLSCAASGSTFSYYAMGSYRQAPGKERELVADISWSGGSTYYADSVKGRFTISRDNAKNTVYLQMNSLKPEDTAVYYCAARGYVRWYNRYDYWGQGTQVTVSS | low polyreactivity
2 | QVQLVESGGGLVQAGGSHRLSCAASGRTFSPNAMGWYRQAPGKERELVAAISYRSYRTYYADSVKGRFTISRDKAKNTVYLQMNSLKPEDTAVYYCNADRTRGFQRYDYWGQGTQVTVSS | high polyreactivity
3 | QVQLVESGGGLVQAGGSLRLSCAASGITFRLYAMGWYRQAPGKEREFVAAISRRGGSTYYADSVKGRFTISRDNAKNTVYLQMNSLKPEDTAVYYCARYGLVYALGYWGQGTQVTVSS | high polyreactivity
4 | QDQLVESGGGLVPAVGSLRLTCAASGYTFWDYTMGLYRQAPGKERELGAAMSSSGSSTYYADSVKGRFTISRDNAKNTVYLQMNSLKPEDNAVYYCAAYSRRQWKYDYWGQGTHVTVSS | high polyreactivity
5 | QVQLVESGGGLVQAGGSLRLSCAASGGIITYYDMGWYSQAPGKDREFVAAINVSGTRTYYADSVKGRFTISRDNAKNTVYLEMNSLKPEDTAVYYGATRYRVGFFSWYDYWGQGTQVTVSS | high polyreactivity
6 | QVQLVESGGGLVQSGGSLRLSCAASVIIFAWYAMGWYRQAPGKERELVAAITANSDSTYYADSVKGRFTISRDNAKNTVYLQMNSLKPEDTAVYDCAKRTYSRKFRGAYNYWGQGTQVTVSS | high polyreactivity
7 | QVQLVESGGGLVQAGGSLRLSCAASGRIIAVYAMGWYRQAPGKERELVATIRGGGSTNYADSVKGRFTISRDNAKNTVYLQMNSLKPEDTAVYYCAALGGRYRASTYGYWGQGTQVTVSS | high polyreactivity
8 | QVQLVESGGGLVQAGGSLRLSCAASGSIFAPYAMGWYRQAPGKERELVAAISTGGRTHYADSVKGRFTISRDNAKNTVYLHMNSLKPEDTAVYYCAAARPTAGVIRPHYYWGQGTQVTVSS | high polyreactivity
9 | QVQLVESGGGLVQAGGSLRLSCAASGYTFSAYAMGWYRQAPGKERELVAVINRSGVRTYYADSVKGRFTISRDNAKNTVYLQMNSLKPEDTAVYYCAADYRNTVLEMDYWGQGTQVTVSS | high polyreactivity
10 | QVQLVESGGGLVQAGGSLRLSCAASGFTFYHNAMGWYRQATGKERELVATITARGGRTYYADSVKGRFTISRDNAKNTVYLQMNSLKPVDTAVYYCNVKASRGYTYEYDYWGQGTQVTVSS | high polyreactivity
11 | QVQLVESGGGLVQAGGSLRLSCAASAMAWYRQAPWKERELVATISATGGSTYYADSVKGRFTISRDNAKNTVYLQMNSLKPEDTAVYYCNKDPLVFVYWGQGTQVTVSS | low polyreactivity
12 | QVQLVESGRGLVQAGGSLRLSSAASGSISLFLTMGWYRQAPGKERELVAAINYTDITKYADSVKGRFTISRDNAKNTVYLQMKSLKPDDTAVYYCARDEGYEYPLGRGGYWGQGTQVTVSS | low polyreactivity
13 | QVQLVESGGGLVQAGGSLRLSCAASGLTFVRYAMGWYRQAPGKERELVAVISYSGARTYYADSVKGRFTISRDNAKNTVYLQMNSLKPEDTAVYYCAATFRGTFRRIWTDTRAYDYWGQGTQVTVSS | high polyreactivity
14 | QVQLVESGGGLVQAGGSLRLSCAASGITLINYAMGWYRQAPGKERELVAAISTSGSSTYYADSVKGRFTISRDNAKNTVYLQMNSLKQEDTAVYYCNAEGQPLYVSWHDHRYIYGFDYWGQGTQVTVSS | low polyreactivity
15 | QVQLVESGGGLVQAGGSLRLSCAASGSTFVYYAMGWYRQAPGKERELVAAITSGDSTYYADSVKGRFTISRDNAKNTVYLQMNSLKPEDTAVYYCAKRGGYKWIYGYWGQGTQVTVSS | low polyreactivity
16 | QVQLVESGGGLVQAGGSLRLSCAASGSTLWTYAMGWYRQAPGKERELVAAISGGGGSTYYADSVKGRFTISRDNAKNTVYLQMNSLKPEDTAVYYCAAVTWVGWGQRRRDYWGHGTQVTVSS | high polyreactivity
17 | QVQLQESGSGLVQAGGSLRLSCAASGAIFPAYLMGWYRQAPGKERELVAGISYGSITYCADSVKGRFNISRDNEKNTVYLQMNSLKPEDTAVYYCAVWRPGGDEYYYWGQGTQVTVSS | low polyreactivity
18 | QDQLVESGGGLVQAGGSLRLSCAASGRTFTYYTMGWYRQAPGKERELVAAITWSGGRTYYADSVKGRFTISRDYAKNTVYLQMNSLKPEDTAVYYCAKPPQGTYDYWGQGTQVNVSS | low polyreactivity
19 | QVQLVESGGGLVQAGGSLRLSCAASGITFTSYVMGWYRQAPGKERELVAAIRWSGGRTYYADSVKGRFTISRDNAKNTVYLQMNSLKPEDTAVYYCNADYAYNSYGYRFYYWGQGTQVTVSS | high polyreactivity
20 | QVLLQESGGGLVQAGGSLRLCCAASGYISGDQYMGWYRQAPGKEREFVAGIGNGTNTNYADSVKGRFTTSRDNAKNTVYLQMNSLKPEDTAVYYCAADPSDGSTLAYWGQGTQVTVSS | high polyreactivity
21 | QVQLVESGGGLVQAGGSLRLSCAASGRTFGGNTMGWYRQAPGKERELVAAISFSGGSTYYADSVKGRFTISRDNAKNTVYLQMNSLKPEDTAVYYCAREDYSHSFLTYDYWGQGTQVTVSS | low polyreactivity
22 | QVQLVESGGGLVQAGGSLRLSCAASGSTFLTYAMGWYRQAAGKERELVAGISYSTGSTYYADSVKGRFTISRDNAKNTVYLQMNSLKPEDTAVYYCAADEWDGLWYYYYFNYEDWGQGTQVTVSS | low polyreactivity

Row | Sequence | polyreactivity (PSR sort gate)
23 | QVQLVESGGGLVQAGGSLRLSCAASGSTVKTYAMGWYRQAPGKERELVAAISWSGGSTYYADSVKGRFTISRDNAKNTVYLQMNSLKPEDTAVYYCNAGWGYPSPWFIGEYWGQGTQVTVSS | low polyreactivity
24 | QVQLVESGGGLVQAGGSLRLSCAASGLIFSDYAMGWYRQEPGKERELVAAIRSGGRTYYADSVKGRFTISRDNAKNTVYLQMNSLKPEDTAVYYCNKLYRRYPVPREYDYWGQGTQVTVSS | high polyreactivity
25 | QVQLVESGGGLVQAGGSLRLSCAASGSIFIRNAMGWYRQAPGKERELVAAISGSGSSTYYADSVKGRFTISRDNAKNTVYLQMNSLKPEDTSVYYCNTDRNHSYQYGGYDYWGQGTQVTVSS | low polyreactivity
26 | QVQLVESGGVLVQSGGSLRLSCAASGITLSRYAMGWYRQAPGKERELVAAISRRGGSTYYADSVKGRFTISRDNAKNSVYLQLNSLKPEDTAVDYCAATRYASLSDSGFNYWGQGTQVTVSS | high polyreactivity
27 | QVQLVESGGGLVQAGGSLRLSCAASGSTFKYYTMGWYRQAPGKERELVAAITSGGSTNYADSVKGRFTISRDNAKNTVYLQMNSLNPEDTAVYYCAAGGRRFYVGVIYDYWGQGNQVTVSS | high polyreactivity
28 | QVQLLESGGGLVQAGGSLRLSCVASGGILSSNAMGWYRQAPGKERELVAAISSGGSTNYADSVKGRFTISRDNAKNTVYLQMNSLKPDDTAVYYCAADSKIGSFDSWGQGTQVNVSS | low polyreactivity
29 | QVQLVESWGGLVQAGGSLRLSCAASGRTLGYNAMGWYRQAPGKERELVATISYNGGRTYYADSVKGRFTISRDNAKNTVYLQMNSLKPEDTAVYYCNTRYRWIRRSLFDYWGQGTQVTVSS | high polyreactivity
30 | QVQLVESGGGLVQAGGSLRLSCAASGRIFAHYAMGWYRQAPGKERELVAAISSGGSTYYADSVKGRFTISRDNEKNTVYLQINSLKPEDTAVYYCAADYLYPPYYEFYYWGQGTQVTVSS | low polyreactivity
31 | QVQLVESGVGLVQAGGSLRLSCAASGSTFGGYAMVWYRQAPGKESELVAAIYSSGGNTNYADSVKGRFTISRDNAKNTVYLQMNSLIPEDTAVYYCARDTQLPHFYGRVSEYDYWGQGTQVTVSS | low polyreactivity
32 | QVQLLESGGGLVQAGGSLRLSCAASGSIFDGYGMGWYRQAPGKERELVAGITSGGSTYYADSVKGRFTISRDTAKNTVYLQMNSLKPEDTAVYYCATVVRYSNARGDYWGQGTQVTVSS | low polyreactivity
33 | QVQLVDSGGGLVKAGGSLRLSCAASGSTFAYYAMGWYRQAPGKERELVAAISWNGGSTYYADSVKGRFTISRDNAKNTVYLQMNSLKPEDTAVYYCAAEVYDYTYVVTFLYDYWGQGTQVTVSS | high polyreactivity
34 | QVQLVESGGGLVQAGGSLRLSCAASGRIFQAYAMGWYRQAPGKERELVASISYRGGITYYADSVKGRFTISRDNAKNTVYLQMNSLKPEDTAVYYCAAGRKGSMYYWGQGTQVTVSS | high polyreactivity
35 | QVQLVESGGGLVQAGASLRLSCAASGSTFDYYAMGWSRQAPGKELELVDAISRGGSTNYADSVKGRFTISRDNAKNSVYLQMNILKPEDTAVYYCAAAPTYRWHDGYWGQGTQVTVSS | low polyreactivity
36 | QVQLVESGGGLVQAGGSLRLSCAASGIIFWDYAMGWSRQAPGKEREIVAAINTSGGTTTYADSVKGRFTISRDNAKNTVYLKMNSLKPEDTAVYYCAADTWGYYSYAYYYWGQGTQVTVSS | low polyreactivity
37 | QDQLVESGGGLVQAGGSLRLSCAASGRTFRRYTKGWYRQAPGKERELVAAISRGGSTNYADSVKGRFTISRDNAMNTFYLQMNSLKPEDTAVYYCNADYWYDWNSYDYWGQGTQVTVSS | high polyreactivity
38 | QVQLVESGGGLVQAGGSLRLTCAASARTFVGNAMGWYRQAPGKERELVAVITGSGARTYYADSVKGRFTISRDNAKNTVYLQMNSLKPEDTAVYYCAGSGYSGQYRSYYWGQGTQVTVSS | high polyreactivity
39 | QVQLVESGGGLVQAGGSLRLSCAASGRTFYGNAMGWYRQAPGKERELVAAITSGGGSTRYADSVKGRFTISRDNAKNSVYLQMNSLKPEDTAVYYCAALYWYEYTYLEYDYWGQGTQVTVSS | high polyreactivity
40 | QVQLVESGGGLVQAGGSLRLSCAASGRIFWYYPMGGYRQAPGKEREYVATINTSGGSTYYADSVKGRFTISRDNAKNTVYLQMNRLKPEDTAVYYCNAAYRFYRTEYYSWGQGTQVTVSS | low polyreactivity
41 | QVQLVESGGGLVQAGGSLRLSCAASGSTFSSNAMGWYRQAPGNERELVAAISKRGGRTYYADSVKGRFTISRDNAKNTVYLQMNSLKPEDTAVYYCAKDYSSAVDYWGQGTQVTVSS | high polyreactivity
42 | QVQLVESGGGLVQAGGSLRLSCAASGSTFRTYVMGWYRQAPGKERELVAAITRSGVSTSYADSVKGRFTISRDNAKNTVYLQMNSLKPEDTAVYYCAATKYDDGYSWTHYYYWGQGTQVTVSS | high polyreactivity
43 | QVQLVESGGGLVQAGGSLRLSCAASGLTFSGNVMGWYRQAPGKERELVAAIDRSGGSTYYADSVKGRFTISRDNAKNTVYLQMNSLKPEDTAVYYCAVSSYPNHSRSWDDYWGQGTQVTVSS | low polyreactivity
